According to the Human Domainome abundance scans (Beltran et al. 2025):
± gives the uncertainty stated by the source.

B1: Nucleosome-remodeling factor subunit BPTF, residues 2862 to 2918; numbered along this chain, Q12830 (parent)
chain: TKKDTKLYCICKTPYDESKFYIGCDRCQNWYHGRCVGILQSEAELIDEYVCPQCQST

Variants of: B1
Test: abundance fitness (aPCA) (normalised: wild type 0, dead -1); higher = more abundant; growth selection in yeast, the domain comes from the species named
Conditions: Homo sapiens

In order of rising abundance fitness:
1. TKKDTKLYCICKTPYDESKFYIGCDRIQNWYHGRCVGILQSEAELIDEYVCPQCQST  -1.15 ± 0.29
2. TKKDTKLYCICKTPYDESKFYIGCDRHQNWYHGRCVGILQSEAELIDEYVCPQCQST  -1.11 ± 0.29
3. TKKDTKLYCICKTPYDESKFYIGCDRPQNWYHGRCVGILQSEAELIDEYVCPQCQST  -1.08 ± 0.14
4. TKKDTKLYCICKTPYDESKFYIGCDRAQNWYHGRCVGILQSEAELIDEYVCPQCQST  -1.05 ± 0.13
5. TKKDTKLYCICKTPYDESKFYIGCDRLQNWYHGRCVGILQSEAELIDEYVCPQCQST  -1.04 ± 0.11
6. TKKDTKLYCICKTPYDESKFYIGCDRDQNWYHGRCVGILQSEAELIDEYVCPQCQST  -0.962 ± 0.25
7. TKKDTKLYCICKTPYDESKFYIGCDRQQNWYHGRCVGILQSEAELIDEYVCPQCQST  -0.956 ± 0.1
8. TKKDTKLYCICKTPYDESKFYIGCDRRQNWYHGRCVGILQSEAELIDEYVCPQCQST  -0.915 ± 0.085
9. TKKDTKLYCICKTPYDESKFYIGCDRWQNWYHGRCVGILQSEAELIDEYVCPQCQST  -0.907 ± 0.097
10. TKKDTKLYCICKTPYDESKFYIGCDRTQNWYHGRCVGILQSEAELIDEYVCPQCQST  -0.871 ± 0.1
11. TKKDTKLYCICKTPYDESKFYIGCDRYQNWYHGRCVGILQSEAELIDEYVCPQCQST  -0.844 ± 0.15
12. TKKDTKLYCICKTPYDESKFYIGCDRFQNWYHGRCVGILQSEAELIDEYVCPQCQST  -0.843 ± 0.2
13. TKKDTKLYCICKTPYDESKFYIGCDRKQNWYHGRCVGILQSEAELIDEYVCPQCQST  -0.822 ± 0.09
14. TKKDTKLYCICKTPYDESKFYIGCDRMQNWYHGRCVGILQSEAELIDEYVCPQCQST  -0.816 ± 0.1
15. TKKDTKLYCICKTPYDESKFYIGCDRSQNWYHGRCVGILQSEAELIDEYVCPQCQST  -0.811 ± 0.091
16. TKKDTKLYCICKTPYDESKFYIGCDRVQNWYHGRCVGILQSEAELIDEYVCPQCQST  -0.803 ± 0.13
17. TKKDTKLYCICKTPYDESKFYIGCDREQNWYHGRCVGILQSEAELIDEYVCPQCQST  -0.785 ± 0.096
18. TKKDTKLYCICKTPYDESKFYIGCDRGQNWYHGRCVGILQSEAELIDEYVCPQCQST  -0.758 ± 0.089
19. TKKDTKLYCICKTPYDESKFYIGCDRNQNWYHGRCVGILQSEAELIDEYVCPQCQST  -0.674 ± 0.19
20. TKKDTKLYCICKTPYDESKFYIGCDRCINWYHGRCVGILQSEAELIDEYVCPQCQST  -0.342 ± 0.11
21. TKKDTKLYCICKTPYDESKFYIGCDFCQNWYHGRCVGILQSEAELIDEYVCPQCQST  -0.279 ± 0.11
22. TKKDTKLYCICKTPYDESKFYIGCDWCQNWYHGRCVGILQSEAELIDEYVCPQCQST  -0.278 ± 0.14
23. TKKDTKLYCICKTPYDESKFYIGCDRCFNWYHGRCVGILQSEAELIDEYVCPQCQST  -0.221 ± 0.1
24. TKKDTKLYCICKTPYDESKFYIGCDPCQNWYHGRCVGILQSEAELIDEYVCPQCQST  -0.207 ± 0.1
25. TKKDTKLYCICKTPYDESKFYIGCDQCQNWYHGRCVGILQSEAELIDEYVCPQCQST  -0.203 ± 0.11
26. TKKDTKLYCICKTPYDESKFYIGCDMCQNWYHGRCVGILQSEAELIDEYVCPQCQST  -0.193 ± 0.1
27. TKKDTKLYCICKTPYDESKFYIGCDVCQNWYHGRCVGILQSEAELIDEYVCPQCQST  -0.18 ± 0.075
28. TKKDTKLYCICKTPYDESKFYIGCWRCQNWYHGRCVGILQSEAELIDEYVCPQCQST  -0.176 ± 0.083
29. TKKDTKLYCICKTPYDESKFYIGCDKCQNWYHGRCVGILQSEAELIDEYVCPQCQST  -0.17 ± 0.099
30. TKKDTKLYCICKTPYDESKFYIGCDRCANWYHGRCVGILQSEAELIDEYVCPQCQST  -0.14 ± 0.094
31. TKKDTKLYCICKTPYDESKFYIGCDYCQNWYHGRCVGILQSEAELIDEYVCPQCQST  -0.11 ± 0.094
32. TKKDTKLYCICKTPYDESKFYIGCDECQNWYHGRCVGILQSEAELIDEYVCPQCQST  -0.087 ± 0.11
33. TKKDTKLYCICKTPYDESKFYIGCDRCDNWYHGRCVGILQSEAELIDEYVCPQCQST  -0.079 ± 0.12
34. TKKDTKLYCICKTPYDESKFYIGCDRCENWYHGRCVGILQSEAELIDEYVCPQCQST  -0.072 ± 0.15
35. TKKDTKLYCICKTPYDESKFYIGCDLCQNWYHGRCVGILQSEAELIDEYVCPQCQST  -0.068 ± 0.065
36. TKKDTKLYCICKTPYDESKFYIGCDDCQNWYHGRCVGILQSEAELIDEYVCPQCQST  -0.029 ± 0.095
37. TKKDTKLYCICKTPYDESKFYIGCDRCGNWYHGRCVGILQSEAELIDEYVCPQCQST  -0.028 ± 0.094
38. TKKDTKLYCICKTPYDESKFYIGCDSCQNWYHGRCVGILQSEAELIDEYVCPQCQST  0.008 ± 0.077
39. TKKDTKLYCICKTPYDESKFYIGCDRCHNWYHGRCVGILQSEAELIDEYVCPQCQST  0.009 ± 0.11
40. TKKDTKLYCICKTPYDESKFYIGCDGCQNWYHGRCVGILQSEAELIDEYVCPQCQST  0.041 ± 0.077
41. TKKDTKLYCICKTPYDESKFYIGCDICQNWYHGRCVGILQSEAELIDEYVCPQCQST  0.043 ± 0.087
42. TKKDTKLYCICKTPYDESKFYIGCSRCQNWYHGRCVGILQSEAELIDEYVCPQCQST  0.054 ± 0.064
43. TKKDTKLYCICKTPYDESKFYIGCTRCQNWYHGRCVGILQSEAELIDEYVCPQCQST  0.056 ± 0.078
44. TKKDTKLYCICKTPYDESKFYIGCDHCQNWYHGRCVGILQSEAELIDEYVCPQCQST  0.064 ± 0.1
45. TKKDTKLYCICKTPYDESKFYIGCDTCQNWYHGRCVGILQSEAELIDEYVCPQCQST  0.067 ± 0.094
46. TKKDTKLYCICKTPYDESKFYIGCDNCQNWYHGRCVGILQSEAELIDEYVCPQCQST  0.075 ± 0.099
47. TKKDTKLYCICKTPYDESKFYIGCDRCCNWYHGRCVGILQSEAELIDEYVCPQCQST  0.126 ± 0.12
